Laboratory results published in patent US20200270588A1, “GLUCOSYL TRANSFERASE POLYPEPTIDES AND METHODS OF USE” (Syngenta Participations AG, priority 2017, published 2020).

Assay: UDP luminescence plate assay of E. coli extracts, mutants within SEQ ID No: 17, 2 mM metribuzin
Assay type: biochemical, Zea mays
Conditions: for metribuzin signal relative to the SEQ ID No:17 control (first parentheses) / ratio of metribuzin to DMSO signal (second parentheses) / SIGNAL: metribuzin signal of mutant divided by the signal of the SEQ ID No. 17 control / luminescence signal observed with 2 mM metribuzin: 2 mM metribuzin; for metribuzin signal relative to the SEQ ID No:17 control (first parentheses) / ratio of metribuzin to DMSO signal (second parentheses): additional mutation in SEQ ID No: 17; for SIGNAL: metribuzin signal of mutant divided by the signal of the SEQ ID No. 17 control: relative to SEQ ID No: 17 control; for luminescence signal in the DMSO control / luminescence signal observed with 2 mM metribuzin: additional mutations within SEQ ID No: 17; for luminescence signal in the DMSO control: DMSO in place of metribuzin; for luminescence signal observed with 2 mM metribuzin: control = SEQ ID No: 17
Experimental: Activities observed with metribuzin were generally lower in magnitude than seen with herbicide V in the previous examples. For example, in one plate assay run with 2 mM metribuzin using 5 ul of diluted extract of plate-grown BL21DE3 cells expressing w/t bx9 and assayed for 40 minutes (as described in Example 2) the UDP-Glo luminescence signal was ˜3.4 E6 as compared with ˜2.3E6 in the DMSO control and ˜1.7E6 in the H24A null mutant control. […] It was therefore important to assess potential improvements in the metribuzin activity of the various mutants relative to the wild type bx9 enzyme based not only on the H24A null activity control but also based upon controls with DMSO in place of metribuzin acceptor substrate. In some plate assays (using more dilute extracts) the metribuzin signals from the w/t enzyme was the same or barely greater than the DMSO control. Additionally, some mutations gave an increase in the ‘background’ UDP-glucose hydrolysis activity with just DMSO present that was the same or similar to the magnitude of the increase in signal seen with metribuzin. In these instances it is therefore uncertain from just this UDP-Glo assay method whether the specific metribuzin signal (glucosylation of metribuzin) is improved or not i.e. the signal seen with metribuzin may or may not all or to a large part be attributable to increased background hydrolysis). […] Thus the ratio of the metribuzin to DMSO signal as well as the increase in signal relative to the w/t bx9 is used to help distinguish those mutations most likely to offer the highest activity to metribuzin. A follow up assay monitored by, for example, LC MS is one method to distinguish these cases more quantitatively. The tables below summarise the results from two different sets of luminescence plate assays to detect single mutations giving improvements in the magnitude of the signal with metribuzin relative to w/t bx9 and/or the apparent specificity for metribuzin as measured by the deviation of the ratio of metribuzin to DMSO control activity from the bx9 w/t value of around unity.
A further separate screen was carried out to explore a library of additional mutations at various positions within the context of SEQ ID No: 17 for improved metribuzin activity. These were assayed, assessed and scored as above. […] These were S75K (2.5)(1.25), A236G (4.0)(1.15), A433V (3.3)(9.0) and R449C (1.8)(1.2).
A yet further and more comprehensive screen was carried out to explore saturation mutagenesis at all remaining amino acid positions within the context of SEQ ID No:17 for improved metribuzin activity. Again these were assayed, assessed and scored as above and the results of (out of the thousands screened) of the subset that were of interest are summarized in Table 16.

B1: P214D: additional mutation in SEQ ID No: 17 (protein)
chain: MASSRTGAGAGGRVVVFPFPFQGHFNPVMRLARALHARGLAITVFHSGALDPADYPADYRFVPVTVEADPKLLASEDIAAIVTTLNASCDAPFRARLSALLAAEGRDSVRCVFTDVVWNAVLTASSDLGVPALGMMTASAASLRDYMAYRTLIDKGYLPVKEERKEDPVPELPPYLVKDLLRVDTSDLEEFAELLARTVTAARRASGLIFNTFDLIETDTLAEIHKALSVPVFAVAPLNKLVPTATASLHGVVQADRGCLQWLDTQQPGSVLYVSFGSFAAMDPHEFVELAWGLADSKRPFVWVVRPNLIRGFESGALPDGVEDEVRGRGIVVKWAPQEEVLAHPAVGGFLTHNGWNSTVEAISEGVPMVCCPRHGDQFGNMRYVCDVWKVGTELVGEQLERGQVKAAIDRLFGTKEGEEIKERMKEFKIAAAKGIGIGVDVDETASPRTDLTDLVDLIKSF
modifications: Mutated Zea mays Bx9 protein sequence
  metribuzin signal relative to the SEQ ID No:17 control (first parentheses): 3.7
  ratio of metribuzin to DMSO signal (second parentheses): 1.34
  SIGNAL: metribuzin signal of mutant divided by the signal of the SEQ ID No. 17 control: 3.66
  luminescence signal in the DMSO control: 4.99E+06
  luminescence signal observed with 2 mM metribuzin: 6.67E+06

B2: L215D: additional mutation in SEQ ID No: 17 (protein)
chain: MASSRTGAGAGGRVVVFPFPFQGHFNPVMRLARALHARGLAITVFHSGALDPADYPADYRFVPVTVEADPKLLASEDIAAIVTTLNASCDAPFRARLSALLAAEGRDSVRCVFTDVVWNAVLTASSDLGVPALGMMTASAASLRDYMAYRTLIDKGYLPVKEERKEDPVPELPPYLVKDLLRVDTSDLEEFAELLARTVTAARRASGLIFNTFPDIETDTLAEIHKALSVPVFAVAPLNKLVPTATASLHGVVQADRGCLQWLDTQQPGSVLYVSFGSFAAMDPHEFVELAWGLADSKRPFVWVVRPNLIRGFESGALPDGVEDEVRGRGIVVKWAPQEEVLAHPAVGGFLTHNGWNSTVEAISEGVPMVCCPRHGDQFGNMRYVCDVWKVGTELVGEQLERGQVKAAIDRLFGTKEGEEIKERMKEFKIAAAKGIGIGVDVDETASPRTDLTDLVDLIKSF
modifications: Mutated Zea mays Bx9 protein sequence
  metribuzin signal relative to the SEQ ID No:17 control (first parentheses): 3.1
  ratio of metribuzin to DMSO signal (second parentheses): 1.34
  SIGNAL: metribuzin signal of mutant divided by the signal of the SEQ ID No. 17 control: 3.14
  luminescence signal in the DMSO control: 4.26E+06
  luminescence signal observed with 2 mM metribuzin: 5.72E+06

B3: W303L: additional mutation in SEQ ID No: 17 (protein)
chain: MASSRTGAGAGGRVVVFPFPFQGHFNPVMRLARALHARGLAITVFHSGALDPADYPADYRFVPVTVEADPKLLASEDIAAIVTTLNASCDAPFRARLSALLAAEGRDSVRCVFTDVVWNAVLTASSDLGVPALGMMTASAASLRDYMAYRTLIDKGYLPVKEERKEDPVPELPPYLVKDLLRVDTSDLEEFAELLARTVTAARRASGLIFNTFPLIETDTLAEIHKALSVPVFAVAPLNKLVPTATASLHGVVQADRGCLQWLDTQQPGSVLYVSFGSFAAMDPHEFVELAWGLADSKRPFVLVVRPNLIRGFESGALPDGVEDEVRGRGIVVKWAPQEEVLAHPAVGGFLTHNGWNSTVEAISEGVPMVCCPRHGDQFGNMRYVCDVWKVGTELVGEQLERGQVKAAIDRLFGTKEGEEIKERMKEFKIAAAKGIGIGVDVDETASPRTDLTDLVDLIKSF
modifications: Mutated Zea mays Bx9 protein sequence
  metribuzin signal relative to the SEQ ID No:17 control (first parentheses): 2.3
  ratio of metribuzin to DMSO signal (second parentheses): 1.35
  SIGNAL: metribuzin signal of mutant divided by the signal of the SEQ ID No. 17 control: 2.30
  luminescence signal in the DMSO control: 3.10E+06
  luminescence signal observed with 2 mM metribuzin: 4.20E+06

B4: I216Y: additional mutation in SEQ ID No: 17 (protein)
chain: MASSRTGAGAGGRVVVFPFPFQGHFNPVMRLARALHARGLAITVFHSGALDPADYPADYRFVPVTVEADPKLLASEDIAAIVTTLNASCDAPFRARLSALLAAEGRDSVRCVFTDVVWNAVLTASSDLGVPALGMMTASAASLRDYMAYRTLIDKGYLPVKEERKEDPVPELPPYLVKDLLRVDTSDLEEFAELLARTVTAARRASGLIFNTFPLYETDTLAEIHKALSVPVFAVAPLNKLVPTATASLHGVVQADRGCLQWLDTQQPGSVLYVSFGSFAAMDPHEFVELAWGLADSKRPFVWVVRPNLIRGFESGALPDGVEDEVRGRGIVVKWAPQEEVLAHPAVGGFLTHNGWNSTVEAISEGVPMVCCPRHGDQFGNMRYVCDVWKVGTELVGEQLERGQVKAAIDRLFGTKEGEEIKERMKEFKIAAAKGIGIGVDVDETASPRTDLTDLVDLIKSF
modifications: Mutated Zea mays Bx9 protein sequence
  metribuzin signal relative to the SEQ ID No:17 control (first parentheses): 3.5
  ratio of metribuzin to DMSO signal (second parentheses): 1.33
  SIGNAL: metribuzin signal of mutant divided by the signal of the SEQ ID No. 17 control: 3.50
  luminescence signal in the DMSO control: 4.79E+06
  luminescence signal observed with 2 mM metribuzin: 6.38E+06

B5: P284F: additional mutation in SEQ ID No: 17 (protein)
chain: MASSRTGAGAGGRVVVFPFPFQGHFNPVMRLARALHARGLAITVFHSGALDPADYPADYRFVPVTVEADPKLLASEDIAAIVTTLNASCDAPFRARLSALLAAEGRDSVRCVFTDVVWNAVLTASSDLGVPALGMMTASAASLRDYMAYRTLIDKGYLPVKEERKEDPVPELPPYLVKDLLRVDTSDLEEFAELLARTVTAARRASGLIFNTFPLIETDTLAEIHKALSVPVFAVAPLNKLVPTATASLHGVVQADRGCLQWLDTQQPGSVLYVSFGSFAAMDFHEFVELAWGLADSKRPFVWVVRPNLIRGFESGALPDGVEDEVRGRGIVVKWAPQEEVLAHPAVGGFLTHNGWNSTVEAISEGVPMVCCPRHGDQFGNMRYVCDVWKVGTELVGEQLERGQVKAAIDRLFGTKEGEEIKERMKEFKIAAAKGIGIGVDVDETASPRTDLTDLVDLIKSF
modifications: Mutated Zea mays Bx9 protein sequence
  metribuzin signal relative to the SEQ ID No:17 control (first parentheses): 1.8
  ratio of metribuzin to DMSO signal (second parentheses): 1.29
  SIGNAL: metribuzin signal of mutant divided by the signal of the SEQ ID No. 17 control: 1.81
  luminescence signal in the DMSO control: 2.55E+06
  luminescence signal observed with 2 mM metribuzin: 3.30E+06

B6: A234C: additional mutation in SEQ ID No: 17 (protein)
chain: MASSRTGAGAGGRVVVFPFPFQGHFNPVMRLARALHARGLAITVFHSGALDPADYPADYRFVPVTVEADPKLLASEDIAAIVTTLNASCDAPFRARLSALLAAEGRDSVRCVFTDVVWNAVLTASSDLGVPALGMMTASAASLRDYMAYRTLIDKGYLPVKEERKEDPVPELPPYLVKDLLRVDTSDLEEFAELLARTVTAARRASGLIFNTFPLIETDTLAEIHKALSVPVFCVAPLNKLVPTATASLHGVVQADRGCLQWLDTQQPGSVLYVSFGSFAAMDPHEFVELAWGLADSKRPFVWVVRPNLIRGFESGALPDGVEDEVRGRGIVVKWAPQEEVLAHPAVGGFLTHNGWNSTVEAISEGVPMVCCPRHGDQFGNMRYVCDVWKVGTELVGEQLERGQVKAAIDRLFGTKEGEEIKERMKEFKIAAAKGIGIGVDVDETASPRTDLTDLVDLIKSF
modifications: Mutated Zea mays Bx9 protein sequence
  metribuzin signal relative to the SEQ ID No:17 control (first parentheses): 3.0
  ratio of metribuzin to DMSO signal (second parentheses): 1.29
  SIGNAL: metribuzin signal of mutant divided by the signal of the SEQ ID No. 17 control: 2.96
  luminescence signal in the DMSO control: 4.20E+06
  luminescence signal observed with 2 mM metribuzin: 5.40E+06
